Measurements as given in US8722052B2, “Vaccinia virus protein A46 peptide and use thereof” (priority 2008, dated 2014).

Target: T1, TLR8 (Homo sapiens, UniProt Q9NR97)
T1 construct: expressed in transfected cells
T1 sequence (Q9NR97 27-1041): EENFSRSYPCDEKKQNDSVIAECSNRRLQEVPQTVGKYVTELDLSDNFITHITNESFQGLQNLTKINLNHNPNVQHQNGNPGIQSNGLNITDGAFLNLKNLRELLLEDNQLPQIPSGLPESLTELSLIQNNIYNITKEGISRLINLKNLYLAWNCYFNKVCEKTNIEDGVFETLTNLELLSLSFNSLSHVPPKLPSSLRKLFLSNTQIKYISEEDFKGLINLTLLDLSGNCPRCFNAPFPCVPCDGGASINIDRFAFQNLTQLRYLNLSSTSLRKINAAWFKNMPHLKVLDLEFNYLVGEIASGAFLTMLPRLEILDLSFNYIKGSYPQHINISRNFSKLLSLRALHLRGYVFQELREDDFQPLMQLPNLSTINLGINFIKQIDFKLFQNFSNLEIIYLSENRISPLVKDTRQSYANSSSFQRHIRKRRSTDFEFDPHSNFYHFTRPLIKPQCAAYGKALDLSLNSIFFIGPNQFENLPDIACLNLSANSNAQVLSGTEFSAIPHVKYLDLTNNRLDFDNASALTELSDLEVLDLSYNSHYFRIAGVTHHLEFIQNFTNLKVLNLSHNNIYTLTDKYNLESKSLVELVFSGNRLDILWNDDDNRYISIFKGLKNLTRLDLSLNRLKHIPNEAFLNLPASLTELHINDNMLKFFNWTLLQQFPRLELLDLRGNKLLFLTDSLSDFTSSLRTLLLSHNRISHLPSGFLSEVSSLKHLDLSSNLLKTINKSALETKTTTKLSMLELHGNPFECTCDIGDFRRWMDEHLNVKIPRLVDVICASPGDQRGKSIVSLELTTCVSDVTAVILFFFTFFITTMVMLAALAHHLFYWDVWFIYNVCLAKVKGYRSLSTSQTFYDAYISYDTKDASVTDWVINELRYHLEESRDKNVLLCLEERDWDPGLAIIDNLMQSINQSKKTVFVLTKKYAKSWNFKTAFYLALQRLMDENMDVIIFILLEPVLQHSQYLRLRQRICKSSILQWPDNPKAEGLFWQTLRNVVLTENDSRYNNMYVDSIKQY
Experiment: CL075-induced NFκB reporter assay in HEK293_TLR8 cells
Type: cell-based
Details: peptide 1, 5 or 25 μM, 2.5 μg/ml CL075, 6 h
Description: FIG. 12 is a bar chart showing the effect of A467 and A464 on TLR8-induced NFκB activation in HEK293 cells. HEK293_TLR8 cells were transfected with 60 ng NFκB-Luciferase and 20 ng of TK-Renilla reporter genes, as in FIG. 11. A467 (SEQ ID NO. 23) and A464 (SEQ ID NO. 20) were added to the cells at a concentration of 1, 5 or 25 μM the next day and cells were stimulated with 2.5 μg/ml CL075 1 hour after treatment with the peptide. Cells were harvested and assayed for NFκB activation by reporter gene assay 6 hr after stimulation with the agonist. No peptides were added to the control wells (black bars). Data is representative of at least three experiments each performed in triplicate. Data are expressed as mean fold induction±s.d. relative to control levels;
HEK293 cells were transfected using GeneJuice® a proprietary non-toxic transfection reagent. 200 μl/well cells at a density of 1×10^5 cells/ml were seeded the day before transfection. 0.8 μl of GeneJuice was mixed with 9.2 μl of serum-free DMEM (SFM) per transfection and incubated for 5 min at room temperature before adding the appropriate amount of the plasmid DNA. The GeneJuice/SFM/DNA mixture was then incubated at room temperature for 15 min before adding to the cells. […] Luciferase activity was analysed using a luminometer. […]

Sequence: KYSFKLILAEYRRRRRRRRR [Peptide A464]
- inhibition of TLR8-dependent NFκB activation: neither A467 (SEQ ID No. 23) nor A464 (SEQ ID No. 20) had any inhibitory effect
